Measured values as given in article PMC4372372.

Target: rPmMasSPH1 (His-tagged recombinant C-terminal SP-like domain of PmMasSPH1) (Penaeus monodon)

## rPmPPAE2 (His-tagged recombinant SP domain of PmPPAE2) (domain or fragment)
  PGN-triggered PO activity of shrimp hemolymph in vitro (L-DOPA, change of A490 at 5 min), with 0.25 ug PGN and 1 uM of each recombinant protein, relative to hemolymph alone: 102%
